Target: Human CCR8 (human) (UniProt P51685)
Assay: cell-based or functional assay

Human CCR8 (human), sequence (P51685 whole entry): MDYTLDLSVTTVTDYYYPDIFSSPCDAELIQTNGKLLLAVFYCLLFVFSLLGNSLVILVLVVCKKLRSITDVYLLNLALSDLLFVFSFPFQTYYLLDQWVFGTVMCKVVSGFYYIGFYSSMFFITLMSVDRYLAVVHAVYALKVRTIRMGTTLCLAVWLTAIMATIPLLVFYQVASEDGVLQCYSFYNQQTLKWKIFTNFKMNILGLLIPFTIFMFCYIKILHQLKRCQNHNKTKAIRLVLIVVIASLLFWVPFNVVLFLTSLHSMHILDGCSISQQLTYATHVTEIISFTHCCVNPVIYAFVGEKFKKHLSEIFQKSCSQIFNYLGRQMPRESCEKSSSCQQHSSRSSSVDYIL

EC90 of chemotaxis of hCCR8 L1.2 cells: 5.84 nM
Substance: human CCL1 (from UniProt P22362 24-96) (ligand)

Reference: patent US20260098096A1
